Results as given in paper PMC9675739, “Structural and functional asymmetry of RING trimerization controls priming and extension events in TRIM5α autoubiquitylation” (Nature Communications, 2022).

Biological target: the molecule itself
Test: AUC; sedimentation equilibrium at different protein concentrations and rotor speeds, 20 °C, global fit to a monomer-dimer self-association model; dimer to monomers

B1: R1-WT, isolated RING domain of rhesus TRIM5α (domain or fragment, rhesus monkey, UniProt Q0PF16 2-90, looked up)
chain: ASGILLNVKEEVTCPICLELLTEPLSLHCGHSFCQACITANHKKSMLYKEGERSCPVCRISYQPENIQPNRHVANIVEKLREVKLSPEE
notes: TRIM5α RING domain, rhesus monkey, residues 2-90 (methods); the results give residues 2-89; Tags removed by TEV protease; 15N-labelled for NMR; also called RING monomer; isolated RING monomer; source: bacteria, purified (Ni-NTA, Superdex 75); not shown: His6, N-terminal, cleaved; GB1, N-terminal, cleaved
Kd: 63 ± 28 µM
